The target in test [1] is HLA-B*15:01. Description: IEDB peptide-MHC binding, purified MHC/competitive/fluorescence; filed as Kd, often an IC50 or EC50 that approximates it; ≥ and ≤ were set here for values at or beyond the usual limits of such assays.
Test [2] has as its target HLA-A*02:01. Description: IEDB peptide-MHC binding, purified MHC/competitive/radioactivity; filed as Kd, often an IC50 or EC50 that approximates it; ≥ and ≤ were set here for values at or beyond the usual limits of such assays.
A further test addresses HLA-A*02:06. Described as above.
In the next test the target is HLA-A*68:02. The test is described as above.
The next test has as its target HLA-A*01:01. Described as above. The note with it: source organism: Dengue virus 2 Jamaica/1409/1983.
Test [3] deals with HLA-B*15:01. Described as above.
The target in the next test is HLA-A*02:03. Described as above.
The target in another test is HLA-A*02:02. The test is described as above.
Test [4] addresses HLA-A*02:01. Description: IEDB peptide-MHC binding, purified MHC/competitive/fluorescence; filed as Kd, often an IC50 or EC50 that approximates it; ≥ and ≤ were set here for values at or beyond the usual limits of such assays.
A further test has as its target HLA-B*35:01. Description: IEDB peptide-MHC binding, purified MHC/competitive/radioactivity; filed as Kd, often an IC50 or EC50 that approximates it; ≥ and ≤ were set here for values at or beyond the usual limits of such assays. The note with it: source organism: Dengue virus 3 Sri Lanka/1266/2000.
In the next test the target is HLA-A*23:01. The description is as above.
The next test addresses HLA-B*53:01. Described as above. The note with it: source organism: Dengue virus 3 Sri Lanka/1266/2000.
Another test has as its target HLA-A*24:02. Described as above.
For another test, the target named is HLA-A*32:01. The test is described as above.
The next test concerns the target HLA-A*26:01. The experiment in a line: IEDB peptide-MHC binding, purified MHC/competitive/fluorescence; filed as Kd, often an IC50 or EC50 that approximates it; ≥ and ≤ were set here for values at or beyond the usual limits of such assays.
Another test has as its target HLA-B*08:01. The experiment in a line: IEDB peptide-MHC binding, purified MHC/competitive/radioactivity; filed as Kd, often an IC50 or EC50 that approximates it; ≥ and ≤ were set here for values at or beyond the usual limits of such assays.
Another test addresses HLA-B*46:01. Description: IEDB peptide-MHC binding, purified MHC/direct/fluorescence; filed as Kd, often an IC50 or EC50 that approximates it; ≥ and ≤ were set here for values at or beyond the usual limits of such assays. The note with it: source organism: Lassa virus Josiah.
Test [5] addresses HLA-B*15:01. The test is described as above. The note with it: source organism: Lassa virus Josiah.
In another test the target is HLA-B*44:03. The experiment in a line: IEDB peptide-MHC binding, purified MHC/competitive/radioactivity; filed as Kd, often an IC50 or EC50 that approximates it; ≥ and ≤ were set here for values at or beyond the usual limits of such assays.
A further test concerns the target HLA-B*18:01. Described as above.
The next test addresses HLA-B*44:02. The test is described as above.
A further test deals with HLA-B*40:01. Described as above.
Another test deals with HLA-B*45:01. The test is described as above.
For another test, the target named is HLA-B*40:02. The test is described as above.
The mark [6] stands for this setting: source organism: Dengue virus 2 Jamaica/1409/1983.
[7] abbreviates: source organism: Trypanosoma cruzi.
[8] abbreviates: source organism: Dengue virus 4 Philippines/H241/1956.
[9] abbreviates: source organism: Dengue virus 3 Sri Lanka/1266/2000.
Where [10] appears, read: source organism: Vaccinia virus WR.
Setting [11] is: source organism: Dengue virus 3 Martinique/1243/1999.
[12] abbreviates: source organism: Dengue virus 1 Brazil/97-11/1997.
Where [13] appears, read: source organism: SARS coronavirus Tor2.
The mark [14] stands for this setting: source organism: Lassa virus Josiah.

Where only a bound is given, the exact number is not on record here.

The sequence ILRHSTAHL showed a Kd with HLA-B*15:01 [1] (source organism: Bacillus anthracis str. A0488) of 142 nM.
Take ELEALKTEL: the Kd with HLA-A*02:01 [2] (source organism: Homo sapiens) was at least 54300 nM; with HLA-A*02:06 (source organism: Homo sapiens), at least 64600 nM; in the test with HLA-A*68:02 (source organism: Homo sapiens), 15900 nM.
Consider QMSSGNLLF, for which the equilibrium dissociation constant (Kd) in the test with HLA-A*01:01 is 4390 nM; with HLA-B*15:01 [3] (setting [6]), 6.83 nM.
Consider EVLRPTTLV, for which the dissociation constant (Kd) in the test with HLA-A*02:03 (setting [7]) came out at 5480 nM; in the test with HLA-A*02:02 (setting [7]), 6570 nM; with HLA-A*02:01 [2] (setting [7]), 13700 nM; in the test with HLA-A*02:06 (setting [7]), 1460 nM; in the test with HLA-A*68:02 (setting [7]), 6.8 nM.
Take QIHLAIMAVF: the dissociation constant Kd with HLA-B*15:01 [3] (setting [8]) came out at 17 nM.
With FQRALIFILL, the Kd with HLA-B*15:01 [3] (setting [6]) turned out to be 117 nM.
As to QALTDLGLI, the Kd in the test with HLA-A*02:01 [2] (source organism: Lassa virus GA391) amounted to 3570 nM.
On to TVLEKNVTV, for which, in the test with HLA-A*02:01 [4] (source organism: Influenza A virus (A/Harbin/1/1988(H1N2))), the Kd worked out at 5.8 nM.
As to KLHSGVDVF, the Kd in the test with HLA-B*15:01 [3] (setting [8]) is 7.72 nM.
Sequence AVDLSHFL showed a dissociation constant Kd with HLA-B*15:01 [1] (source organism: Chloroflexus aurantiacus J-10-fl) of at least 20000 nM.
In the test with HLA-B*15:01 [1] (source organism: Human immunodeficiency virus 1), LGLNKIVRMY displayed a Kd of 1960 nM.
Take MMILPAALAF: the dissociation constant (Kd) is 1490 nM with HLA-B*35:01; 119 nM with HLA-A*23:01 (setting [9]); 2.41 nM in the test with HLA-B*15:01 [3] (setting [9]); 6480 nM with HLA-B*53:01; 916 nM with HLA-A*24:02 (setting [9]).
For the sequence LLWFLTGTF, the values for the Kd with HLA-A*32:01 (setting [10]) and in the test with HLA-B*15:01 [3] (setting [10]) were 93 nM and 0.776 nM, respectively.
Regarding NSKNTSMSF, the Kd in the test with HLA-B*15:01 [3] (setting [11]) came out at 526 nM.
In turn, RSSMKLLSY had a dissociation constant (Kd) with HLA-B*15:01 [1] (source organism: Yersinia pestis Nepal516) of 88.6 nM.
For DICSGLQQL, in the test with HLA-A*26:01 (source organism: Escherichia coli O139:H28 str. E24377A), the dissociation constant (Kd) was at least 20000 nM.
Turning to NAHKLILSG, the dissociation constant (Kd) in the test with HLA-B*15:01 [3] (setting [10]) stood at 18100 nM.
Regarding IVIGVGNSAL, in the test with HLA-B*15:01 [3] (source organism: Dengue virus 4 Dominica/814669/1981), the dissociation constant Kd amounted to 52.9 nM.
Take LVQYRILPM: the Kd with HLA-A*02:03 (setting [10]) was found to be 1170 nM; with HLA-A*02:02 (setting [10]) it was 14800 nM; in the test with HLA-A*02:06 (setting [10]), 4670 nM; with HLA-B*15:01 [3] (setting [10]), 63.3 nM.
Take QNGALAINTF: in the test with HLA-B*15:01 [1] (source organism: Human herpesvirus 4 type 2), the Kd is at least 20000 nM.
As for VMAFIAFLRF, the Kd with HLA-A*23:01 (setting [12]) was determined as 846 nM; with HLA-B*15:01 [3] (setting [12]) it was 62.3 nM; in the test with HLA-A*24:02 (setting [12]) it was 901 nM.
On to ELRLLIHQSL, for which the dissociation constant Kd with HLA-A*02:03 (source organism: Homo sapiens) is 1580 nM; with HLA-A*02:01 [2] (source organism: Homo sapiens) it was 1510 nM; with HLA-A*68:02 (source organism: Homo sapiens) it was 1130 nM.
Turning to PLESDAVECL, the dissociation constant (Kd) with HLA-A*02:03 (source organism: Homo sapiens) was 11900 nM; with HLA-A*02:02 (source organism: Homo sapiens), 4230 nM; with HLA-A*02:01 [2] (source organism: Homo sapiens) it was at least 63100 nM; in the test with HLA-A*02:06 (source organism: Homo sapiens), at least 68500 nM; in the test with HLA-A*68:02 (source organism: Homo sapiens), at least 65200 nM.
Turning to LTFDYVVTF, the values for the Kd with HLA-A*32:01 (setting [10]) and in the test with HLA-B*15:01 [3] (setting [10]) were 17.2 nM and 2.45 nM, respectively.
Turning to MVHIYFVSL, the results for the Kd in the test with HLA-B*08:01 (setting [10]) and in the test with HLA-B*15:01 [3] (setting [10]) were 1.35 nM and 5460 nM, respectively.
As for MMKTYIEFV, in the test with HLA-B*15:01 [3] (setting [10]), the dissociation constant (Kd) was determined as 170 nM.
On the same count and under the same terms, next, MSIDHCSSF: 0.952 nM.
On to GLSRPLLRL, for which the dissociation constant Kd with HLA-A*02:01 [2] (source organism: Hepatitis B virus subtype ayw) is at least 5000 nM.
With RIEDMFLTSV, the Kd with HLA-A*02:03 (setting [10]) was found to be 71 nM; with HLA-A*02:02 (setting [10]), 548 nM; with HLA-A*02:01 [2] (setting [10]), 48 nM; with HLA-A*02:06 (setting [10]), 168 nM.
Take GLVECNNHY: the values for the Kd in the test with HLA-B*46:01 and with HLA-B*15:01 [5] were at least 20000 nM and 182 nM, respectively.
On to LQWIASAIVL, for which the dissociation constant (Kd) in the test with HLA-B*08:01 (setting [11]) came out at 4970 nM; with HLA-B*15:01 [3] (setting [11]), 6.43 nM.
RIMAWTVVNSI: in the test with HLA-A*02:01 [4] (source organism: Influenza A virus (A/chicken/California/1002a/00(H6N2))), the Kd is at most 1 nM.
The sequence EISSIISLM displayed a Kd with HLA-A*26:01 (source organism: Bacillus anthracis str. A2012) of 9.8 nM.
For the sequence NDFVSDADST, the dissociation constant (Kd) with HLA-B*44:03 (setting [13]) was at least 70100 nM; with HLA-B*18:01 (setting [13]) it was at least 70500 nM; with HLA-B*44:02 (setting [13]), at least 32700 nM; in the test with HLA-B*40:01 (setting [13]) it was at least 69600 nM; in the test with HLA-B*45:01 (setting [13]) it was 2600 nM; with HLA-B*40:02 (setting [13]), at least 70800 nM.
The sequence GILKSILKV showed a Kd in the test with HLA-A*02:01 [4] (setting [14]) of 39.1 nM.
On to LLLSINSSF, for which the dissociation constant (Kd) in the test with HLA-A*32:01 (source organism: Variola virus) was found to be 2090 nM; with HLA-B*15:01 [3] (source organism: Variola virus), 0.883 nM.
Consider AEAQMSIQLI, for which the equilibrium dissociation constant (Kd) is 69.1 nM with HLA-B*44:03 (setting [14]); at least 23500 nM in the test with HLA-B*18:01 (setting [14]); 34.6 nM in the test with HLA-B*44:02 (setting [14]); 1300 nM with HLA-B*40:01 (setting [14]); 78.9 nM in the test with HLA-B*45:01 (setting [14]); 53.9 nM with HLA-B*40:02 (setting [14]).
Turning to IQNSGGTSI, in the test with HLA-B*15:01 [3] (setting [11]), the dissociation constant (Kd) amounted to 25.7 nM.

As a reminder, the Kd is the constant that tells how readily two partners part at equilibrium.
